Test results as given in patent US20120315270A1 (UNITED STATES OF AMERICA AS REPRESENTED BY THE, published 2012).
Numbering of substitutions follows the chain as printed. Where two headings read alike, the source gives them in different places.

Legend:
[1] = biological target: RSV F glycoprotein on GFP-expressing RSV (respiratory syncytial virus, UniProt P03420 26-574); assay: cell-based or functional assay
1lp1b-003_K272E = biological target: T1, 1lp1b-003_K272E; assay: SPR (Example 7)
T1 construct: also called 1lp1b(K272E)

1lp1b-003 F2Y H15N = assay: co-crystallization
[2] = biological target: motavizumab (as used in ITC); assay: ITC
[3] = biological target: T2, Motavizumab fragment of antigen binding (Fab); assay: SPR (Biacore), motavizumab Fab immobilised, immunogen injected
T2 construct: also called motavizumab Fab

[4] = biological target: T2, Motavizumab fragment of antigen binding …; assay: as above; remark: listed apart in the source

B1: motavizumab IgG (antibody, V domains shown)
VH: QVTLRESGPALVKPTQTLTLTCTFSGFSLSTAGMSVGWIRQPPGKALEWLADIWWDDKKHYNPSLKDRLTISKDTSKNQVVLKVTNMDPADTATYYCARDMIFNFYFDVWGQGTTVTVSS
VL: DIQMTQSPSTLSASVGDRVTITCSASSRVGYMHWYQQKPGKAPKLLIYDTSKLASGVPSRFSGSGSGTEFTLTISSLQPDDFATYYCFQGSGYPFTFGGGTKVEIK
**Q.** How did the “EC50 (read off the curve), neutralization of GFP-expressing RSV on HEp-2 cells, flow cytometry” value [1] turn out when B1 was run?
**A.** Its value is roughly 0.06 nM.

B2: motavizumab Fab (Fab, V domains shown)
VH: B1 VH
VL: B1 VL
notes: also called the Fab
**Q.** Does B2 bind (1lp1b-003_K272E)?
**A.** Result: no binding

B3: motavizumab (format in the assay not stated) (antibody, V domains shown)
VH: B1 VH
VL: B1 VL
**Q.** Does B3 bind (1lp1b-003 F2Y H15N)?
**A.** Result: binds

B4: 1s2xa_003 (designed binder)
chain: GSPNSRVDELGFNEAERQKILDSNSSLMRNANEVRDKFIQNYATSLKDSNDPQDFLRRVQELRINMQKNFISFDAYYNYLNNLVLASANRASQELSFANDTIKNNDTKKLFSNEIADNFNNFTADEVARISDLVASYLPREYLPPFIDGNMMGVAFQILGIDDFGKKLNEIVQDIGTK
notes: also called Cag-Z
**Q.** B4 was tested. Which “-TdS” value [2] did it give?
**A.** The value was 9.9.

**Q.** And the Kd [2]?
**A.** The Kd was 147 nM.

**Q.** What about the dH [2] of the same binder?
**A.** The dH was -19.2.

**Q.** And the Kd [3]?
**A.** The Kd was 3 µM.

**Q.** What about the Kd [4] of the same binder?
**A.** Its Kd is 3 µM.

B5: 1s2xa_004 (designed binder)
chain: B4 chain with A98I, I115A
**Q.** For B5, which “-TdS” value [2] is on record?
**A.** The value was 10.7.

**Q.** What about the Kd [2] of the same binder?
**A.** The Kd was 275 nM.

**Q.** What about the dH [2] of the same binder?
**A.** Its dH is -19.6.

**Q.** What about the Kd [4] of the same binder?
**A.** Its Kd is 3.95 µM.

B6: 1s2xa_002 (designed binder)
chain: GSPNSRVDELGFNEAERQKILDSNSSLMRNANEVRDKFIQNYATSLKDSNDPQDFLRRVQELRINMQKNFISFDAYYNYLNNLVLASANRASQELSFINDTIKNNDTKKLFSNEAADNFNNFTADEVARISDLVASYLPREYLPPFIDGNMMGVAFQILGIDDFGKKLNEIVQDIGTKY
**Q.** What does the source list for B6?
**A.** Kd [3]: 3.64 µM; Kd [4]: 3.64 µM

B7: 1s2xa_001 (designed binder)
chain: B6 chain with A91C, I98A, A115I
**Q.** What does the source list for B7?
**A.** Kd [3]: 4.75 µM; Kd [4]: 4.75 µM

B8: 2eiaa_001 (designed binder)
chain: APRGYTTWVNTIQTNGLLNEASQNLFGILSVDATSEEMNAFLDVVPGQAGQKQILLDAIDKIADDWDNRHPLPNAPLVAPPQGPIPMTARFIRGLGVPRERQMEPAFDQFRQTYRQWIIEAMSEGIKVMIGKPKAQNIRQGAKEPYPEFVSRLLSQINDEGHPNDIKKLRSNTLTIQNANEECRNAMRHLRPSDTGAEKMYACRDIG
**Q.** Does B8 bind [4]?
**A.** Result: no binding
